Measurements published in EP4778937A1.

T1: CD155 (labelled CD155 molecule / CD155 antigen of Example 2) (UniProt P15151)
T1 sequence (labelled for flow cytometry, label not stated, looked up): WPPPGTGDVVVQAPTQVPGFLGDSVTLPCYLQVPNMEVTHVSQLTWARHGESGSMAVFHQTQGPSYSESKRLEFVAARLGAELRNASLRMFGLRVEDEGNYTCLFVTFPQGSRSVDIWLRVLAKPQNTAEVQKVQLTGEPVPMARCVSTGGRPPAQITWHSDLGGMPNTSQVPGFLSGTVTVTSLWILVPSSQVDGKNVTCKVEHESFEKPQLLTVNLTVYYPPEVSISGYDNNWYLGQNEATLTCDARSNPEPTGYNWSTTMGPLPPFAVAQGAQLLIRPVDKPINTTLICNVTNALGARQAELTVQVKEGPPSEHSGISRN


Tests used:
[1] = biological target: CD112 on MDA-MB-231-Luc-GFP and MDA-MB-231-CD155(-)-Luc-GFP cells (human) (UniProt Q92692); assay: flow cytometry of MDA-MB-231-Luc-GFP cells stained with the antibody, control incubated with PBS
[2] = biological target: CD112 (labelled CD112 molecule / CD112 antigen of Example 2) (UniProt Q92692); assay: flow cytometry, labelled CD112 on CAR-CHO cells; MFI of CD112-positive cells / MFI of TIGIT-positive cells
[3] = biological target: T1, CD155 (labelled CD155 molecule / CD155 antigen of Example 2); assay: flow cytometry, labelled CD155 on CAR-CHO cells; MFI of CD155-positive cells / MFI of TIGIT-positive cells

MFI, fold over the control group [1]	relative MFI of CD112 (CD112/TIGIT) [2]	relative MFI of CD155 (CD155/TIGIT) [3]	Molecule
4 fold			CD112 (Nectin2) Monoclonal Antibody (R2.525) PE
	0.13	1.34	CAR6 (TIGIT mutant peptide Mut6-CD28TM-28Z) (receptor) MMTGTIETTGNISAEKGGSIILQCHLSSTTAQVTQVNWEQQDQLLAIWNADLGWHISPSFKDRVAPGPGLGLTLQSLTVNDTGEYFCIYHTYPDGTYTGRIFLEVLESSVAEHGARFQIPFWVLVVVGGVLACYSLLVTVAFIIFWVRSKRSRGGHSDYMNMTPRRPGPTRKHYQPYAPPRDFAAYRSRVKFSRSADAPAYKQGQNQLYNELNLGRREEYDVLDKRRGRDPEMGGKPRRKNPQEGLYNELQKDKMAEAYSEIGMKGERRRGKGHDGLYQGLSTATKDTYDALHMQALPPR
	0.16	1.03	CAR30 (wild-type TIGIT polypeptide-CD28TM-28Z) (receptor) MMTGTIETTGNISAEKGGSIILQCHLSSTTAQVTQVNWEQQDQLLAICNADLGWHISPSFKDRVAPGPGLGLTLQSLTVNDTGEYFCIYHTYPDGTYTGRIFLEVLESSVAEHGARFQIPFWVLVVVGGVLACYSLLVTVAFIIFWVRSKRSRGGHSDYMNMTPRRPGPTRKHYQPYAPPRDFAAYRSRVKFSRSADAPAYKQGQNQLYNELNLGRREEYDVLDKRRGRDPEMGGKPRRKNPQEGLYNELQKDKMAEAYSEIGMKGERRRGKGHDGLYQGLSTATKDTYDALHMQALPPR
